Common to all, as to assay: SPR
In experiment [1] the target is HLA-B*4402^EENL (human | not stated | Epstein-Barr virus).
For experiment [2], the target named is HLA-B*4403^EENL (human | not stated | Epstein-Barr virus).
Experiment [3] addresses HLA-B*4405^EENL (human | not stated | Epstein-Barr virus).
In the next experiment the target is DM1 TCR (human).

A word on the Kd: it is the concentration at which binding is half-saturated. For orientation: koff means the rate constant with which the complex falls apart. A high value points to a short-lived complex.

Consider DM1 TCR, for which, in experiment [1], the Kd amounted to 6.3 µM, the Kd calc was 14 µM and the koff was 0.2 s⁻¹. In experiment [2], the Kd was 9.4 µM, the Kd calc was 16 µM and the dissociation rate constant (koff) came out at 0.25 s⁻¹. Also, in experiment [3], the equilibrium dissociation constant (Kd) is 300 nM, the Kd calc was 0.23 µM and the koff was 0.02 s⁻¹.

Turning to “HLA-B*4405^EENL (from UniProt P61769 21-119) (peptide-MHC)”, the Kd with DM1 TCR (human) was 1000 nM.

These data come from PMC2626662.
